{"source": "patent US20230406907A1", "binders": {"B1": {"name": "antibody S1D2 (fully human recombinant monoclonal IgG1, no Fc mutation) (antibody, V domains shown)", "VH": "EVQLVESGGGLIQPGGSLRLSCAASGFTVSSNYMSWVRQAPGKGLEWVSIIYPGGSTNYADSVKGRFTISRDNSRNTLYLQMNSLRAEDTAVYYCARELGYYGMDVWGQGTTVTVSS", "VL": "DIQMTQSPSSVSASVGDRVTITCRASQGISTWLVWYQQKPGKAPNLLIYGASSLQSGVPSRFSGSGSGTDFTLTISSLQPEDFATYYCQQANSFPYTFGQGTKLEIK"}}, "key": {"[1]": {"target": "T1, SARS-CoV-2 spike protein RBD (amino acids 319-537 of SEQ ID NO:1, i.e. SEQ ID NO:5) with a carboxy t (SARS-CoV-2), P0DTC2", "details": "remark: other sources report otherwise"}, "[2]": {"target": "T1, SARS-CoV-2 spike protein RBD (amino …)", "details": "remark: other sources report otherwise", "remark": "listed apart in the source"}}, "note": "Read-outs that look alike come from different tables or passages of the source.", "data": [{"binder": "B1", "values": [{"measurement": "Kd", "setting": "[1]", "result": 46, "unit": "nM"}, {"measurement": "Kd", "setting": "[2]", "result": 46.2, "unit": "nM"}, {"measurement": "koff", "setting": "[2]", "result": 0.027, "unit": "s⁻¹"}, {"measurement": "kon", "setting": "[2]", "result": 584000, "unit": "M⁻¹ s⁻¹"}]}]}
